# Experimental data as given in patent publication US20220177594A1 (ZOETIS SERVICES, published 2022).
# Positions count from the first letter of the chain named.
# B1: Mu_19F07_VL (SEQ ID NO: 49)_L50A (antibody, V domains shown)
# VH: EVKLVESEGGLVQPGSSMKLSCTASGFTFSDYYMAWVRQVPEKGLEWVANINYDGSSTYYLDSLKSRFIISRDNAKNILYLQMSSLKSEDTATYYCARGLTWDFDVWGTGTTVTVSS
# VL: DIVMTQSHKFMSPSVGDRVSITCKASQDVDTAVAWYQQKPGQSPKLLIYAASTRHTGVPDRFTGSGSGTDFTLTISNVQSEDLADYFCQQYSRFPLTFGAGTKLELKR
# B2: Mu_19F07_VL (SEQ ID NO: 49)_T53A (antibody, V domains shown)
# VH: B1 VH
# VL: B1 VL with A50L, T53A
# B3: Mu_19F07_VL (SEQ ID NO: 49)_F94A (antibody, V domains shown)
# VH: B1 VH
# VL: B1 VL with A50L, F94A
# B4: Mu_19F07_VL (SEQ ID NO: 49)_Q90A (antibody, V domains shown)
# VH: B1 VH
# VL: B1 VL with A50L, Q90A
# B5: Mu_19F07_VL (SEQ ID NO: 49)_Q89A (antibody, V domains shown)
# VH: B1 VH
# VL: B1 VL with A50L, Q89A
# Target: T1, ANTIBODY EXPRESSION CONTROL
# T1 construct: also called mouse anti-canine antibody (capture reagent of the expression control ELISA)
# Assay: SPR Biacore, expression control
# Description: The affinity with which candidate mAbs bind canine, feline, and human (SEQ ID NO: 122; Human_OSMR) (R&D Systems, Minneapolis, Minn.) OSMR was determined using surface plasmon resonance (SPR) on a Biacore system (Biacore Life Sciences (GE Healthcare), Uppsala, Sweden). To avoid affinity differences associated with differential surface preparation that can occur when immobilizing antibodies to surfaces; OSMR from each species was directly conjugated to individual surfaces. Immobilization was obtained by amine coupling 5 μg/mL OSMR using N-hydroxysuccinimide (NHS)/1-Ethyl-3-(3-dimethylaminopropyl) carbodiimide (EDC) chemistry. Chips were quenched with ethanolamine and the affinity with which all candidate mAbs bound to the immobilized OSMR was evaluated. All curves were fit to a 1:1 model. […] Results for affinity measurements are described herein.
# Data from an ELISA represents an equilibrium state where the antibody is allowed to associate and dissociate over a one-hour period resulting in steady-state binding. Using Biacore, the target protein is immobilized to a surface and the antibody is passed over this surface in a mobile liquid phase. Protein-protein interaction is determined from changes in the surface resonance which allows for calculation of association (kₐ), disassociation (kd), and affinity constant (KD). While not wishing to be bound to one hypothesis we present data from ELISA and Biacore experiments, using the same preparation of antibody, that may result in agreement between the two methods with respect to binding but also may show contradictory results due to the nature of the binding kinetics and different assay dynamics. The data presented in Table A (in combination with experimental results from yeast display mutational analysis in Example 21) allow for the definition of a structure:function relationship to be defined between the anti-OSMR antibodies described here and their ability to bind and block IL-31 and OSM-mediated signaling through the OSMR receptor.
Kd,koff,kon,Binder
0.164 nM,4.8e-05 s⁻¹,293000 M⁻¹ s⁻¹,B1
0.123 nM,3.75e-05 s⁻¹,305000 M⁻¹ s⁻¹,B2
0.16 nM,5.35e-05 s⁻¹,335000 M⁻¹ s⁻¹,B3
0.161 nM,5.29e-05 s⁻¹,329000 M⁻¹ s⁻¹,B4
0.135 nM,4.3e-05 s⁻¹,319000 M⁻¹ s⁻¹,B5
